Reference: US20050220762A1

Key:
[1] = molecular target: human growth hormone receptor on IM-9 cells (human) (UniProt P10912); assay: cell-based or functional assay
[2] = molecular target: T1, full length rat GHR (L43R) on BAF3 cells (rat) (UniProt P16310); assay: cell-based or functional assay
T1 sequence (looked up): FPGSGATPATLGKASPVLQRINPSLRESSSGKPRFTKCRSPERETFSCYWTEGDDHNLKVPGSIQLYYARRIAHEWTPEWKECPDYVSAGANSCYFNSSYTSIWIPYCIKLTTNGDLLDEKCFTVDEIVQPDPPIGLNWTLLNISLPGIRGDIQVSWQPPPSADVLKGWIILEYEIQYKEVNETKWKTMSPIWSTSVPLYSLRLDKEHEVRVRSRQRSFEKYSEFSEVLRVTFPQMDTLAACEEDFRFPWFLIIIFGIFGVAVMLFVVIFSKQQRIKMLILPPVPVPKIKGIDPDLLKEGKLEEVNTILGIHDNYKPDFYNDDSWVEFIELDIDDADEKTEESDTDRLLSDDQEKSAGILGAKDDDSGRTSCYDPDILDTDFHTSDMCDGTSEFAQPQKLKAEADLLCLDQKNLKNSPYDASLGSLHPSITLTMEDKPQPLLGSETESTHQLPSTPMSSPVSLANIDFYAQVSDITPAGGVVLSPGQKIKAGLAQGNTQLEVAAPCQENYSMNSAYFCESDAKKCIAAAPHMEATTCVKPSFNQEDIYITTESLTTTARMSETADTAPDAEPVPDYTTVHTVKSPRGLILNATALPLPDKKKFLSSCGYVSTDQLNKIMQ

Chain of UniProt P10912 (P10912 19-638): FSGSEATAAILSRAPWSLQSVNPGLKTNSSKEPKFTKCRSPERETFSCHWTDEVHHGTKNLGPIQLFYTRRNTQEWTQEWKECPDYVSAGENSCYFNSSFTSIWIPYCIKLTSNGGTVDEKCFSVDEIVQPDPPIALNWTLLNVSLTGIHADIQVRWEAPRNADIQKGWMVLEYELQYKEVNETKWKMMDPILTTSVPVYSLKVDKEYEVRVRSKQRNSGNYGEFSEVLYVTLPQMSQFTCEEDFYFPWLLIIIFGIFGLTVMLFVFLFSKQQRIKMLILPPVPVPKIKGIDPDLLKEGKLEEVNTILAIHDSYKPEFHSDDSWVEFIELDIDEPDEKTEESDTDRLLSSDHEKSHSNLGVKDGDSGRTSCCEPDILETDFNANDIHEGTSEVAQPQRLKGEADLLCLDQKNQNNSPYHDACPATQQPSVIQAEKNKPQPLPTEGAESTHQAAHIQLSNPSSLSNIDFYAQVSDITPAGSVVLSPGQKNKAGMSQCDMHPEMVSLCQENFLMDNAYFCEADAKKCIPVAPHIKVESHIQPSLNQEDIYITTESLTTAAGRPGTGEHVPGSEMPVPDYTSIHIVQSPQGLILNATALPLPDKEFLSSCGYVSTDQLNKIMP

| Substance | pSTAT5 EC50 (nM), IM-9; WHO hGH expressed as unity [1] | Proliferation EC50 (nM), BrdU, rat GHR (L43R) BAF3 cells; WHO hGH expressed as unity [2] |
| --- | --- | --- |
| hGH Y143pAF linked to 30 kDa PEG (from UniProt P01241 27-217) (ligand) | 12.3 nM | 6.6 nM |
| hGH K145pAF linked to 30 kDa PEG (from UniProt P01241 27-217) (ligand) | 20.6 nM | 5.3 nM |
| hGH R134pAF linked to 20 kDa PEG (from UniProt P01241 27-217) (ligand) | 5.3 nM | – |
| hGH G131pAF linked to 30 kDa PEG (from UniProt P01241 27-217) (ligand) | 23.8 nM | 4.6 nM |
| hGH Y35pAF linked to 40 kDa PEG (from UniProt P01241 27-217) (ligand) | 53.3 nM | 24 nM |
